Test results published in a protein production outcome set (Wang et al. 2014).

Assay: label from the status in PepcDB records

Sequence | protein production
MDQKELQVRKEIQELSFLIFTEPNNYKHYYERGILYGGEHIKSTECRESDYHGDYSQAIEDFDKVIELQPNFANAYYHKACIYFDLGIDDDEAESLLEKALALEPNNSAYTIKYAEVITYHGENGDIAAELLEKVLVQDYSADNCILSAGYLLQYASYDFLIGNDVQALQTYQKAMKRLQHAVEKDHECLEYATNMWSDFAEGCGYDHESIKNGSSLLLPQISVWM | failed
MAKKILILGAAGEIARMLTDRLLAESDAELVLYGRNVSQRLALEENSRIKLVDGTFGESEKLEAALAGVDVVYLNSMSSPADTASVVQALEKAGVKRLLGATIAGVEDEVPYELATWTKNSLPASYIKGEYDSAKIVRDSNLDYTLLRLTWLFNDESDREYELVPSGVEFADAEVSRQAITQAILDILNGEESEYVRKSFGLGKPNTHYGKPSFY | failed
MEVTLLGTGDTTGTPTVQCDCDTCERARDPDEELRANVRERGIDPTGGVERSRFSVAVENDTTGESLLVDLSPDFRHQFLRESVPLPDAAIITHIHFDHLDGLGNAYRLFDELPVHAADETDPVTDESVAEAVRSRYDYLDTVSVHAQTPLEPFTVAGFEVTLVPVTHPPLLCYGLRIEEPQTGAVLSISGDTCYDVPDRSKSVLTGADLALVEGIVHPEACEYHPKGGTHHNEDGVPRTFGTKHMTLPGARDFAADIEADDYRIVHTAHYVPADRAFADDIGLDGEQFML | failed
MSAHQGSETVTFGDSSAERPLGRSIMRGMANRCPACGSGRLFRAFLKPVDACAACGEEMHHHRSDDLPPYISIVIIGHIAVGGFMMTDMILNIPMWAHFAIWVPITILAALLTLQPIKGGVIGLQWALRMHGFDRKQPKVQIDGSSH | failed
MLLNEIPWTIPLTVRLSNGLTHTFASVYEALDFLENEWPLRKGERYERAVRTCRRALNRMTPAAVAREAFIAACLEAGMPLVMAPPAREPQGDTVKAAHTA | not failed
MDKNIWTSRRRRGRSHHRSPALRQCDSSERYTSGASQSSQDSGHHDVECPSTSSSKAGESSVPDLPGFYFDPEKNRYFRLLPGHNNCNPLTKEGIQLKEMESRRLQLLQQEDKQKKKIARVGFNASSILRKNQLGFLNFSSYCRLSHELRVACMERKKVEIQSSDPSALASDRFNFILADTTSDRLFTVNDVKIGGSKYGIISLQGLKAPTFEVHMHENLYFTNRKVNSVCWASLNHLDSHILLCLMGLAETPGCATLLPASLFVSSHQGTDQPGMLCSFRIPGAWSCAWSLNVQANNCFSTGLSRRVLLTNVVTGHRQSYWTNSDVLAQQFAVKTPLLFNGCRSGEIFAIDLRSPSQAKGWKATQIFHDSAVTSVQVFKEEQYLMASDMAGKIKLWDLRATKCVRQYEGHVNEYAYLPLHMHEEEGILVAVGQDCYTRIWSLHDARLLRTIPSPCPTSKANIPSVAFSPRLGGPRGAPGLLMAVQQDLYCFPYSSSCPDGLKEGRWEPSSVSKEDIL | failed
MEDFWVQYGDEMLPVIGDFPRKGDYLPSFMLVDDQKHDAALESFSHTPKLIVTLLSVDEDEHAGLLLLRETRRFLDSWPHLKLIVITVDSPSSLARARHEHGLPNIALLSTLRGRDFHKRYGVLITEYPLSGYTSPAIILADAANVVHYSERLANTRDFFDFDAIEKLLQEGEQQAMAAEREAAEARQEQDAEREKGTERLLEKAKLIQDQLNRNGDPGR | not failed
MPTETFFNLPEEKRSRLIDVLLDEFAQNDYDSVSINRITERAGIAKGSFYQYFADKKDCYLYLIQLGIEQKTAFLRQTPPASTTDMFAYLRWLLDVGIQFQFHNPRLAQIAYKALYDDVPLPAETMQVIRHGSFAYFKQLVEQGIADGSLVPDLDADTAAFVLNVVFTELGNHLIERFAVNPAELLREGGIVLLQPAMRRVIEQVIDILERGMRRR | not failed
TQVADNEYLVQGRMLIDEFNEVFETDLHMSDVDTMAGYLITALGTIPDEGEKPSFEVGNIKLTAEEMEGTRLLVLRVHFYDEETVDEEPEENRRFFRKEMEDDEPRR | not failed
MQSTDLGNKESGKIWHRKPSPATHDGIIVNIVHSTSEYHPKVLRFLNVAFDGSGDSFIAGDHQGNIYVFDLHGNRFNLVQRTAQACTALAFNLRRKSEFLVALADYSIKCFDTVTKELVSWMRGHESSVCSISVHASGRYAITTSSDTAQLWDLDTFQRKRKLNIRQSVGIQKVFFLPLSNTILSCFKDNSIFAWECDTLFCKYQLPGPPEGSNILYKVFAVTRDGRILAAGGKSNHLHLWCLEATGLFRIIQMPAKVRAVRHLEFLPDSFDAGSNQVLGVLSQDGIMRFVNIQTCKLLFEIGTVEEGISSSVISPHGRYIASIMENGSLNVYSVQALTQEINKPPPPLVKVIEDLPSNTVSSSNLKMKIMPGRVQRPARCKESKIPTRVLKQDLTGDLENKENELSEGLNKKRLQILLKGYGEYPTKYRMFIWRSLLQLPENHTAFSSLVDKGTHAAYLSLQKKYPIKSRKLLRVLQRTLSALAHWSAIFSDTPYLPLLAFPFVKLFQNNQLICFEVVATLIINWCQHWFEYFPNPPINILSMIENVLAFHDKELLQHFIDRDITSQVYAWPLLETLFSEVLTREEWLRLFDNIFSNHPSFLLMTVVAYSTCSRAPLLNCTLKNDFEYFFHHRNNLDINVVIREVYHLMETTPADIHPNSMLDAFVALTKGQYPIFNQYPKFIVDYQTREWERIRNDELDFLRERQTVENMQAEVDEQRAKDEAWYQKQELLRRAEETRREILLQEEEKMAQQRQRLAAVKRELEIKEIHLQDAARRRLLKLQQDQREMELRRLEDEIERKVQMRDQEIAATAKDLEIRQLELEAQKRLYEKYSFSLSFMQNIV | failed
MLPDDVNQADVLADVTAAFYRYEKALTGNDVAVLDELFWHDEKTVRYGAGENLYGIEEIRAFRLARPSAGLDRALRNTVITTYGHDMAVASTEFTRTGSTKIGRQMQTWVKMPEGWRIVAAHVSLMSE | not failed
MTTPGKLNKARVPPYKTAGLGLVLVFALVVALVYLQFRGEFTPKTQLTMLSARAGLVMDPGSKVTYNGVEIGRVDTISEVTRDGESAAKFILDVDPRYIHLIPANVNADIKATTVFGGKYVSLTTPKNPTKRRITPKDVIDVRSVTTEINTLFQTLTSIAEKVDPVKLNLTLSAAAEALTGLGDKFGESIVNANTVLDDLNSRMPQSRHDIQQLAALGDVYADAAPDLFDFLDSSVTTARTINAQQAELDSALLAAAGFGNTTADVFDRGGPYLQRGVADLVPTATLLDTYSPELFCTIRNFYDADPLAKAAAGGGNGYSLRTNSEILSGIGISLLSPLALATNGAAIGIGLVAGLIASPLAVAANLAGALPGIVGGAPNPYTYPENLPRVNARGGPGGAPGCWQPITRDLWPAPYLVMDTGASLAPYNHMEVGSPYAVEYVWGRQVGDNTINP | failed
MKMKHAFGPIILACVLFFIIILIPSKSLVSLISDKKVEDAATSLQKEKLQSVFLQQKMLENSQYLPMYGSSEFLRMDAYHPSNYFKVNPAGFTPYLIGIGGTQSLAHILNMTSTIDELEGKKVVFVLSPQWFTKTGVSQGDFTNNFSKQQAYHFIFNDKMNVEMKKQIAKRLLDYKVVQEDDILKNSLEGIVYNDTKHNIKAGLVKPLAYMHRNILDHRDLFNSIFKIEPMKEKTNVGLRSISWVDARKHAEEEGKAESTTNTFGIENPYYYKHNLKKKLKGLKNFRVNESYEESPEYDDLQIVLNIFKEKNVKPLFISVPVNGPWYDYAGFPKERREVYYKKVREQVEKAGYPVVDFSGHEYDKYFLKDTIHLGWKGWIYFDEAVQNFYNEKLEHHHHHH | failed
MLMHATMAALAVFICFAGNYLTGQSMMERPLVVGLVTGILMGDMKTGVLMGASLEAIFLGNVNIGGVIAAEPVTATTLATTFAIISNVEQKAAMTLAVPIGMLAAFVVMFLKNVFMNIFAPSLDKAAREGNQKMVVTLHYGTWIIYYLIIASISFIGILAGSGPVNLFVESIPQNLMNGLSAAGGLLPAVGFAMLMKLLWDNKLAVFYILGFVLTAYLQLPAVAVAVIGTVICVVSAQRDVEFRDILKRKPAASSAVEGSAKEIEEEDFFA | failed
MGSIDRYIFRTTLASFALVLVSLTGVIWITQALRGIDLMTSQGQTILTFLGITSLVVPALVLIISPIALMIAISHTLNKLATDSEIIVMNAAGFSPFRLFYPFFYATCVVALLVAFIAAYLAPDGMRRIKQWDAEITADVLTNILQPGRFAQLDKNLTIRIRERLPGGILAGIFIDDRRDPNERVSIVAEHGEVMKNDTGSFLVLETGNLQRFEVGKRDPALVAFGRYGFDMSKFSGQGRDVTLGIRERYLWELFSPSEDDPVYKQIPGQFRSALHDSLLAPIYPFAFAVLTFAFLGAPRTTRQSRNFSIGSSIVAVFGLRMAGFACSVMAVKSPAAVLVQYAMVLGAIGVGMWMIVGGIVVEPPPRLMEAINRSNARIARLFGRPATA | failed
MYSSGNPTNIANPIKDASVQIDLKTVGGKLTLYQTTLCERISGDNIDLGLDLGSQSFLPTYNKNDIQLICCQADASVLWLVPDTVVTRFIQSLDWDTDMDITFTWVLNRDRPKGKETVKYERSVDPLDLPKRSDIQMVLNGSMDGFRVHNLYPKFFRVTGSGDVRSFEDQTDEVSADILINHANFKWWWSFHNLKASENISACEGMDGPVAIIMSEETPPPVGRFIRLQCSDLRMRIPYENLPSCDRLIAICEDLYAARAEGELGVEEVLYWTLVKIYRSPHMLLEYTKLDYDA | failed
MSNVSALPIQPETTPSGGGSVRDRVSPQEWEVRVKLAAAYRLAALKRWTDHIYTHFSARVPGPDEHFLINAFGLLFDEITASNLVKVDIDGTIVDDPTGLGINYAGYVIHSAIHAARHDLQAVLHTHTRDGIAVSAQKGGLLPISQHSIAFSGRVAYHGYEGIALDLSERERLVADLGDKSVMILRNHGLLTGGVSVEHAFQQLHALEYACNIQIAAQSAGNDELVFPPQEVIARVEEQAKVIKDGHGPGVARHWNALIRELERSGTDYRE | failed
MSLPSSRTRGRPARLDRARTVQTALDLLNESGLDTLTMRRLAQAMDVQAGALYRYFAAKQDLLTAMAEHMVDGVADAAGATGDGDWSERTARLARALRAALLAHRDGARVFAGTHATGPNTLRFADGLVGVLREAGFGDGDAARALYSVANFTVGHTLEEQAALTPGGGGPLDEATLREAVAAGTYPHLAATLPVLTSTDFTAHFEFGLRLLLDGLRAVRQ | not failed
MTPYQGEPLSLNFQDVEVRAVLQVLADYAGVNLVASDAVQGSVTLRLQDVPWDQALDLVLRSKGLSRRQEGNVLLVAPAAEFAAQSADARVSQALDAHLQPLRRELLPIHHAKAADLAQLLLAGLEGDGIPPASLSVDERTNTLVVHLPADRLAEMRQLVAQLDVPVRQVAIEARIVEANVDYEKSLGVRWGGPLYGEKLRPGKELFVDLGLERAGSSIGLGLLRGDVLLDLELSAMEKSGNGEIISQPKVVTADKETARILKGTEVPYQETSQSGATSVSFREASLSLEVTPQITPDNKVIMTVRVTKDEPDYVNALNNVPPIRKNEVNAKVRVADGETIVIGGVYSTSQNNVVDKVPFFGDLPYVGRLFRRDALQEKKSELLVFLTPRIMSDQAIAVSRLEHHHHHH | failed
MADSAELKQMVMSLRVSELQVLLGYAGRNKHGRKHELLTKALHLLKAGCSPAVQMKIKELYRRRF | not failed
MPAKTALIYSNDFSRFSYGDDHPFKIQRIILARELMGMLGLTELPGACIHDCPRADEASLLTFHSPDYLQRLREFSDSDEPRADFRYGLGDLDNPVFKGFYDWAILGVGGTMEAARLVTEEGYDIAFTMAGGWHHAHRSKASGFSYLNDAVIAINTLVAKGLRVAYLDIDAHHGDGVQEAFYDTDQVLTVSIHESGIYFFPGTGFEDEIGRGQGRGYSVNVPLVAHTDDALFMKAFDEVAYPLIAAYNPDVLVTQLGVDTFRTDPLTRLEITTHSYTYILRKLKALKIPWVAVGGGGYNMINVARGWTLAWGIMNGVELPPKLPAQFVDMIAPMGHPNRMLLDAMHWAEEDDRNRALDAVERSIAAIRETVFPVIIGNYAAAAGE | failed
